These results are taken from patent publication US20260159606A1 (VIB VZW, published 2026).

The target in experiment [1] is T1, hPIV-3 hemagglutinin-neuraminidase (HN), expressed on transfected HEK293T cells (human parainfluenza virus 3 (hPIV-3), UniProt P08492 1-572).
T1 chain: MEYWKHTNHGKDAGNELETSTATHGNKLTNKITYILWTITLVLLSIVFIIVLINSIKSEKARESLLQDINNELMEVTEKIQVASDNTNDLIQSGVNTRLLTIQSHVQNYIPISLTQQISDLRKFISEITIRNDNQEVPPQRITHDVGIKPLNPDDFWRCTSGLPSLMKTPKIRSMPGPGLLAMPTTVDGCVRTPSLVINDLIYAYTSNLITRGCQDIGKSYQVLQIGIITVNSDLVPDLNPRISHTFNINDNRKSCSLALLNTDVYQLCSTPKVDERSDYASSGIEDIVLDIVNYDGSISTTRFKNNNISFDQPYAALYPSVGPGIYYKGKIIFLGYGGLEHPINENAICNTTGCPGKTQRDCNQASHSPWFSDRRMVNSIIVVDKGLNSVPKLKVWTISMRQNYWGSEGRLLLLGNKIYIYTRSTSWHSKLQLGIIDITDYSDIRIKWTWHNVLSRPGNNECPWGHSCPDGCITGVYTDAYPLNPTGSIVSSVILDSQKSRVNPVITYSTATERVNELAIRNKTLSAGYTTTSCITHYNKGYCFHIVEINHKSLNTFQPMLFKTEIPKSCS

The target of experiment [2] is T2, hPIV-3 fusion protein (F), expressed on transfected HEK293T cells (human parainfluenza virus 3 (hPIV-3), UniProt P06828 19-539).
T2 construct: whole, on cells
As to the kind of experiment: flow cytometry on transfected HEK293T cells (FIG. 4). In general terms: A flow cytometer gives signals particle by particle.

Experiment [3] has as its target T3, D275N- and R277T-mutant hPIV-3 HN, expressed on transfected HEK293T cells (human parainfluenza virus 3 (hPIV-3), UniProt P08492 1-572).
T3 construct: also called mut HN3
T3 chain: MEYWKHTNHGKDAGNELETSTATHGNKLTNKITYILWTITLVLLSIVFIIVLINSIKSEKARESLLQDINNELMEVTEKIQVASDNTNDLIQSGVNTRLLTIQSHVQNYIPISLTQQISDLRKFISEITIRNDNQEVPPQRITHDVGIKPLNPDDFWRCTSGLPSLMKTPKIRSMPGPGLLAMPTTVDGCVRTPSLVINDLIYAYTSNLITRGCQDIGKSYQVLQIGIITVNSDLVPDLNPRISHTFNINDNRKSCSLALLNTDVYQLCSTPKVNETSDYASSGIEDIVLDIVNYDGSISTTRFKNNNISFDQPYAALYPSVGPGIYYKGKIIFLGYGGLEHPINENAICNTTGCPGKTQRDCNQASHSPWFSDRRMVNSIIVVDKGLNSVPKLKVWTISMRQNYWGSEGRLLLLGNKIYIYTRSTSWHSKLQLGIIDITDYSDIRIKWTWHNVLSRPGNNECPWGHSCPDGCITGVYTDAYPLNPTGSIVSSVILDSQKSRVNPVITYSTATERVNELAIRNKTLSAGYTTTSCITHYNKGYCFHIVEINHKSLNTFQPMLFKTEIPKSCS
As to the kind of experiment: flow cytometry on transfected HEK293T cells (FIG. 11C).

In experiment [4] the target is T4, hPIV-1 hemagglutinin-neuraminidase (HN), expressed on transfected HEK293T cells (human parainfluenza virus 1 (hPIV-1), UniProt P16071 1-575).
T4 construct: whole, on cells; also called hPIV-1 HN; HN1
T4 sequence: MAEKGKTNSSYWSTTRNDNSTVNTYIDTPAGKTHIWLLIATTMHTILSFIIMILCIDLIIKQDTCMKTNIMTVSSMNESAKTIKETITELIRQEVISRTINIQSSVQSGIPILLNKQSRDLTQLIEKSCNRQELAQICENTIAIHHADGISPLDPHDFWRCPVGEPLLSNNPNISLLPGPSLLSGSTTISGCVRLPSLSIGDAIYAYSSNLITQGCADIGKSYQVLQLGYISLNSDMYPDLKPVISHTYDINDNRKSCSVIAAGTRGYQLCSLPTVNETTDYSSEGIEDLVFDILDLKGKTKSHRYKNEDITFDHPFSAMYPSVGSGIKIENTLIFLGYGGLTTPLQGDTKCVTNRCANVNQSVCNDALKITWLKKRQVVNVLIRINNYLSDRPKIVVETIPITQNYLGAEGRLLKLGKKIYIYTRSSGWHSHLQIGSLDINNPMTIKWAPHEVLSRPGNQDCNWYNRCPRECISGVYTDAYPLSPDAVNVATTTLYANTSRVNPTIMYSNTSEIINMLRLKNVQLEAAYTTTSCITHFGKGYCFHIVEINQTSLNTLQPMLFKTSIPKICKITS
As to the kind of experiment: flow cytometry on transfected HEK293T cells.

The target in experiment [5] is T3, D275N- and R277T-mutant hPIV-3 HN, …. Briefly: flow cytometry on transfected HEK293T cells, VHH 1 or 0.1 µg/ml (FIG. 11C).
Experiment [6] has as its target HN of hPIV-3-GFP virus (on virions and on hPIV-3-infected cells) (human parainfluenza virus 3 (hPIV-3), UniProt P08492 1-572). As to the kind of experiment: cell-based or functional assay.
Experiment [7] has as its target T5, HN of hPIV-1-GFP virus (on virions and on hPIV-1-infected cells) (human parainfluenza virus 1 (hPIV-1), UniProt P16071 1-575).
T5 sequence: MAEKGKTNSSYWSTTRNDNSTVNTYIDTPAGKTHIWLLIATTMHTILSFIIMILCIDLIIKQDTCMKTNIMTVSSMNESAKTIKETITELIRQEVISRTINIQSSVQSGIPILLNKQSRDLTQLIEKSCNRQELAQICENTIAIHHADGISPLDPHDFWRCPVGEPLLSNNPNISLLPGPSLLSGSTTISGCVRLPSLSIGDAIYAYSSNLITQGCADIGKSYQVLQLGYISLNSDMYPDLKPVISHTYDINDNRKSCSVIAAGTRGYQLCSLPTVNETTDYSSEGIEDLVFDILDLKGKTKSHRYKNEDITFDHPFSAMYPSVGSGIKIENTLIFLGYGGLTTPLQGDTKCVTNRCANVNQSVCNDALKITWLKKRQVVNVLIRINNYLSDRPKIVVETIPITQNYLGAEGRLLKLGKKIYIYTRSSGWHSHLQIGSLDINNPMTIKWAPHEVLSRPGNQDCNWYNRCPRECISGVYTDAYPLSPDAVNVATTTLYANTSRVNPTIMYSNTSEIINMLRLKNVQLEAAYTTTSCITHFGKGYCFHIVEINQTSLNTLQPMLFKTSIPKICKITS
As to the kind of experiment: cell-based or functional assay.

The target of experiment [8] is T1, hPIV-3 hemagglutinin-neuraminidase …. Briefly: flow cytometry on transfected HEK293T cells, 10 µg/ml (FIG. 16A).
Experiment [9] concerns the target T6, recombinant hPIV-1 HN-dGCN4 (human parainfluenza virus 1 (hPIV-1), UniProt P16071 138-575).
T6 construct: domain: head domain; also called hPIV-1 HN linked to dGCN4; not shown: strep-tag II
As to the kind of experiment: ELISA, HN protein coated (50 ng), 1/3 dilution series (FIG. 18). In general terms: An ELISA detects its analyte on a solid surface through an enzyme-linked reagent.

Experiment [10] deals with T7, recombinant hPIV-1 HN-tetraGCN4 (human parainfluenza virus 1 (hPIV-1), UniProt P16071 138-575).
T7 construct: domain: head domain; also called hPIV-1 HN linked to tetraGCN4; not shown: strep-tag II
Described as above.

In experiment [11] the target is T8, recombinant hPIV-3 HN-dGCN4 (human parainfluenza virus 3 (hPIV-3), UniProt P08492 136-572).
T8 construct: domain: head domain; also called hPIV-3 HN linked to dGCN4; not shown: strep-tag II
The experiment is described as above.

B1: VHH A2R3-55 (VHH)
VHH: QVQLQESGGGLVQAGGSLRLSCAASGSIDRIDAMGWSRQAPGKQRELVATITTGGITNYAVSVKGRFTISRDNAKNTVYLQMNSLKPEDTAVYYCNAQGAPSWGLYEDYWGQGTQVTVSS
Take B1: the “fold reduction of binding at 500 µg/ml of zanamivir” value in experiment [1] is ~5 fold. Moreover, the binding result in experiment [2] is given as “no binding (tested: 1 µg/ml)”; in experiment [3], “no binding (tested: 1 or 0.1 µg/ml)”; in experiment [4], “no binding”.

B2: bivalent VHH A2R3-59-59 (VHH)
chain: QVQLQESGGGLVQPGGSLRLSCAASGSISGINGMGWYRQAPGKQRELVAAITSGGSTNYADSVKGRFTISRDNAKNTVDLQMNSLQPEDTAVYYCYVSSTPSWGLYDDYWGQGTQVTVSSGGGGSGGGGSGGGGSQVQLQESGGGLVQPGGSLRLSCAASGSISGINGMGWYRQAPGKQRELVAAITSGGSTNYADSVKGRFTISRDNAKNTVDLQMNSLQPEDTAVYYCYVSSTPSWGLYDDYWGQGTQVTVSS
notes: also called bivalent A2R3-59
As to B2, the binding result in [5] and in experiment [8] was “binds” throughout. Moreover, the “fold higher potency of hPIV-3-GFP neutralization than the monovalent counterpart” value in [6] is ~8 fold. In [7], the “IC50 of neutralization of hPIV-1-GFP on Vero (E6) TMPRSS2 cells” value came to 2.9 nM.

B3: humanized A2R3-60-Fc construct version 1 (Fc fusion)
chain: DVQLVESGGGLVQPGGSLRLSCAASGTTVSINGMGWYRQAPGKQREFVALSTTGGVTNYADSVKGRFTISRDNAKNTVYLQMNSLRPEDTAVYYCNAVASPSWGLYDDYWGQGTLVTVSSGGGGSGGGGSDKTHTCPPCPAPEAAGGPSVFLFPPKPKDTLMISRTPEVTCVVVDVSHEDPEVKFNWYVDGVEVHNAKTKPREEQYNSTYRVVSVLTVLHQDWLNGKEYKCKVSNKALGAPIEKTISKAKGQPREPQVYTLPPSRDELTKNQVSLTCLVKGFYPSDIAVEWESNGQPENNYKTTPPVLDSDGSFFLYSKLTVDKSRWQQGNVFSCSVMHEALHNHYTQKSLSLSPG
notes: also called A2R3-h60-Fc; h60-Fc
As a reminder, the EC50 is the midpoint of the concentration-response curve. With B3, the figures for the EC50 in experiment [9], in [10] and in experiment [11] were 32 µg/mL, 71 µg/mL and 0.018 µg/mL, respectively. Further, in experiment [8], the binding result is “binds”.

B4: VHH A2R3-57 (VHH)
VHH: QVQLQESGGGLVQPGGSLRLSCAASGSIFSTDAMGWYRQPPGKQRELVATITSGGSTNYVDSVKGRFTISRDNAKNTVYLQMNSLKPEDTAVYYCALHQTTGWGLYNDYWGQGTQVTVSS
notes: also called 2AR-57
For the molecule B4, in experiment [1], the “fold reduction of binding at 500 µg/ml of zanamivir” value is ~5 fold. The binding result in experiment [2] is recorded as “no binding (tested: 1 µg/ml)”; in experiment [3], “no binding (tested: 1 or 0.1 µg/ml)”.

B5: bivalent VHH A2R3-60-60 (VHH)
chain: QVQLQESGGGLVQPGGSLRLDCAASGTTVSINGMGWYRQAPGKQREFVALSTTGGVTNYADSVKGRFTISMDNAKKTVALQMNSLKPEDTAVYYCNAVASPSWGLYDDYWGQGTQVTVSSGGGGSGGGGSGGGGSQVQLQESGGGLVQPGGSLRLDCAASGTTVSINGMGWYRQAPGKQREFVALSTTGGVTNYADSVKGRFTISMDNAKKTVALQMNSLKPEDTAVYYCNAVASPSWGLYDDYWGQGTQVTVSS
notes: also called bivalent A2R3-60
Turning to B5, the EC50 in experiment [9] was 167 µg/mL; in experiment [10], 50 µg/mL; in experiment [11] it was 0.02 µg/mL. In addition, the binding result in [5] and in [8] was “binds” each time. In addition, the “fold higher potency of hPIV-3-GFP neutralization than the monovalent counterpart” value in experiment [6] is ~7.5 fold.
